Test results reported in article PMC4712875.

Molecular target: FGFR3 of chick prechordal mesoderm cells (chick (endogenous in prechordal mesoderm cells)) (UniProt P18460)
Assay: immunostaining of cells or tissue; isolated st6 chick prechordal mesoderm cells cultured until st8, incubated with proNodal-FLAG, detected with anti-FLAG; non-targeted cells

UniProt P18460, sequence (P18460 20-806): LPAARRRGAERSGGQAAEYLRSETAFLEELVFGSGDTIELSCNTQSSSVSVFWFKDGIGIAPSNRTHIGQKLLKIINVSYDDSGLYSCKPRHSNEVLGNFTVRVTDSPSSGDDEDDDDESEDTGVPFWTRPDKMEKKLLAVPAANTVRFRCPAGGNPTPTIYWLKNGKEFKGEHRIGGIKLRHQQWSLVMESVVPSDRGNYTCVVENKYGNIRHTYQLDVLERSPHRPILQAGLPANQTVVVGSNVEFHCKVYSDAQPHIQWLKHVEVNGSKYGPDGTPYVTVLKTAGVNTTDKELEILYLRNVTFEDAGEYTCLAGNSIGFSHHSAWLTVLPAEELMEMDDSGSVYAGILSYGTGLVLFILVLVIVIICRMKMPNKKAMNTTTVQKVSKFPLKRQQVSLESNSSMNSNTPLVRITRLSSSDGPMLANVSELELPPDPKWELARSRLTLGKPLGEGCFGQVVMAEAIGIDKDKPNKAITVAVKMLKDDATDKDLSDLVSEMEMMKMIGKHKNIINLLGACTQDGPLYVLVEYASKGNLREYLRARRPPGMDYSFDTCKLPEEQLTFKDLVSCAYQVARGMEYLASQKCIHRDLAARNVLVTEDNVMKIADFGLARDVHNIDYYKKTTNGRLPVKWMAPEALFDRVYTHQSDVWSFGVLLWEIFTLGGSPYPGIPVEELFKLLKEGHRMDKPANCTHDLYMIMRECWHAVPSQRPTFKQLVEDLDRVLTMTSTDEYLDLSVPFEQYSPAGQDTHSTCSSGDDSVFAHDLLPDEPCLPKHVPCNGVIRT

percent of DAPI+ nuclei closely associated with anti-FLAG: 79%
Substance: recombinant proNodal (recombinant Nodal cleavage mutant resistant to proprotein convertases), FLAG-tagged (from UniProt P43021 27-354) (ligand)
